Values belong to the binder of their own block, whether it stands above or below them.
Biological target: wild type human presenilin 1 (PS1) (human, UniProt P49768 1-467)
Experiment: cell-based or functional assay

Aβ42/Aβ40 Ratio: 0.59 normalized to mock transfection (1.0)
B1: PAMPΔ312-340 (other, not shown: small tags and cut ends)
chain: NSVERKIYIPLNKTAPCVRLLNATHQIGCQSSISGDTGVIHVVEKEEDLQWVLTDGPNPPYMVLLESKHFTRDLMEKLKGRTSRIAGLAVSLTKPSPASGFSPSVQCPNDGFGVYSNSYGPEFAHCREIQWNSLGNGLAYEDFSFPIFLLEDENETKVIKQCYQDHNLSQNGSAPTFPLCAMQLFSHMHAVISTATCMRRSSIQSTFSINPEIVCDPLSDYNVWSMLKPINTTGTLKPDDRVVVAATRLDSRSFFWNVAPGAESAVASFVTQLAAAEASRMVYDMEKGKFPVQLENVDSFVELGQVALRTSLELWMHTDPVSQKNESVRNQVEDLLATLEKSGAGVPAVILRRPNQSQPLPPSSLQRFLRARNISGVVLADHSGAFHNKYYQSIYDTAENINVSYPEWLSPEEDLNFVTDTAKALADVATVLGRALYELAGGTNFSDTVQADPQTVTRLLYGFLIKANNSWFQSILRQDLRSYLGDGPLQHYIAVSSPTNTTYVVQYALANLTGTVVNLTREQCQDPSKVPSENKDLYEYSWVQGPLHSNETDRLPRCVRSTARLARALSPAFELSQWSSTEYSTWTESRWKDIRARIFLIASKELELITLTVGFGILIFSLIVTYCINAKADVLFIAPREPGAVSY

Aβ42/Aβ40 Ratio: 0.09 normalized to mock transfection (1.0)
B2: PAMPΔ312-369 (other, not shown: small tags and cut ends)
chain: NSVERKIYIPLNKTAPCVRLLNATHQIGCQSSISGDTGVIHVVEKEEDLQWVLTDGPNPPYMVLLESKHFTRDLMEKLKGRTSRIAGLAVSLTKPSPASGFSPSVQCPNDGFGVYSNSYGPEFAHCREIQWNSLGNGLAYEDFSFPIFLLEDENETKVIKQCYQDHNLSQNGSAPTFPLCAMQLFSHMHAVISTATCMRRSSIQSTFSINPEIVCDPLSDYNVWSMLKPINTTGTLKPDDRVVVAATRLDSRSFFWNVAPGAESAVASFVTQLAAAEALRTSLELWMHTDPVSQKNESVRNQVEDLLATLEKSGAGVPAVILRRPNQSQPLPPSSLQRFLRARNISGVVLADHSGAFHNKYYQSIYDTAENINVSYPEWLSPEEDLNFVTDTAKALADVATVLGRALYELAGGTNFSDTVQADPQTVTRLLYGFLIKANNSWFQSILRQDLRSYLGDGPLQHYIAVSSPTNTTYVVQYALANLTGTVVNLTREQCQDPSKVPSENKDLYEYSWVQGPLHSNETDRLPRCVRSTARLARALSPAFELSQWSSTEYSTWTESRWKDIRARIFLIASKELELITLTVGFGILIFSLIVTYCINAKADVLFIAPREPGAVSY

— patent publication US20020058276A1 (GOVERNING COUNCIL OF THE UNIVERSITY OF TORONTO, published 2002)
